Results on 68 sequences are retold here after the domain aggregation screens of Martell et al. (2025).

This data set in a line: soluble fraction after stress (log2 fold change); higher = more stays soluble; pooled small domains, quantitative proteomics. The settings on record: stress: 50 degC. Put shortly: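 After stress at 50°C, the amount of each protein still soluble was measured. This was done on pooled custom libraries of small protein domains, using high-throughput quantitative proteomics. The figure given is a base-two log fold change and stands for aggregation propensity, with higher values meaning more protein stays in solution.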
“HMVDGAHKQQAAVQALTPALKVLAAAPEGKKGQAIQALRAVLKQHGRWLDDATAQQVHEQLLAAGDAQGWQ”: the “soluble fraction (log2)” value worked out at 0.297.
The figure for “HMSETTSRVLQLLGLLQARRVWTGQELADRLGVTGRSVRRDIERLRDLGYPVHASKGRDGGYQLGA” is -1.01.
The figure for “HMTKYEGLSLDLIIDGVVITHNLKLAKLDMNWLLDRLKENGWDNPKDIFYAYIDTAGNFRFQPKLKASRTR” is 0.202.
The figure for “HMITVEAPMPGKVLSVNVKAGDKVEAGDVLLILEAMKMQNEIMAPEDGTVSDVRVSAGDTVATGDVMVV” is 0.0409; for “HMEAQFIDINDVRIGTYVYVDLGWIKHPFALNSFKITSRDQIDTLIKLGVKRIRWSPEKSDS” it is -1.3; for “HMGADRLVGMTAIVTATIDPNDTDRKGRVQVEGEVWSALSDGRLIITEGSKVRITEMHGTRVRVEAI” it is -0.0351.
As for “HMLSLGQQIRNHVLSRIESGEWPEGSRIPSEAKLVELLGASRMTIHIALRDLSAEGVLLRKQGAGTFVAPR”, the “soluble fraction (log2)” value was -2.47.
The figure for “HMTTLEGIEKYLGSGMIRGIGPAYAGRLTKVFGEAVFDVIEQSPERLREVEGIGPKRVSRIVSGWAEQ” is -0.264; for “HMDTVEALTEQLKKLDKRGEGQIPAPEFKQYMMNMGGKMTAEELDEMMKVADPGKEGVVNIAEFADAL” it is 0.35.
The figure for “HMDEGQEHYVKETDLPFYSEADPASSVIFPLVLNQKLIEKERKDDWIRALEPTTGLVGWVLLKSLSPQQLS” is 0.124.
The figure for “HMAKRMRNPNGYGSIVKLSGNRRNPYMVKVNTHMDERYYPVYDILGYYPTWADASIALAKYNDDPYNVS” is -0.453.
“HMNQTGQYENAAKRFNQLITIDSSDKRAYLQLGISNYNLGNKEKADSLFNIIRNSKDKLLIEELDNFLT”: the “soluble fraction (log2)” value was 0.0481.
The figure for “HMYKMKDRIKKIMEMQRTTQQDFADQLKIAPATLSSIFTGRTRPTLAIVDAIKSRFPQISTDWLMFGKGDM” is -0.219; for “HMEDVPYMIKLPSHHYLTKMVDGSTGWSLVQNSNTVVGSSKEELLKQYPEYEDFIVQEPLNV” it is 0.101; for “HMDPASYEARLSTLREQGAQQLDPVRFQYLATLAQRLPTQTPGVALILANKLRAGLSDYEQRLSEAGS” it is -0.0289.
On to “HMVFTEEERAEYREKMLDAGFDLLKQYGMTHMSVAKITEAAGIGVSTFYNFFSSKEEYVYEVLQYRRRK”, for which the “soluble fraction (log2)” value was -1.25.
The figure for “HMENRLREVRDEIATRHGILPTVFINDRVLMNIHSKKPKDVSQLWQVDGISDEFIMKYGPEFIAEYKKKAK” is 0.0216; for “HMGIDAIDNFVSKIIMKIEGLGESEVPTSTIGKFIMEGLQYLDTVAYVRYASVYKNFKEAKDFEQFVGSL” it is -0.179; for “HMQTLQTTSLRVSENQLFILDQQALPQEKRWLAADNVALLVDHIHTLRVRGAPLIGLSASLLLALLAGRLT” it is -0.0766.
The figure for “HMSVKVFRDQILLNNDSDKMLQLSFSNLFGQKVLETSISPGKSAISTGNLPPGIYFITTSPATGVMRVII” is -1.12; for “HMDYLSEFITDKVVRADGYSIRKGELSNEFKQWFITNVGTKNPKPKEIHDYMDRKFGKNKNGIWKNVKIKL” it is -0.38; for “HMNGQFIELKNTTGTIIEARVLSFQNGKVKLQRNDGLIFVASISIFDSESIEVIKQKVAEISESKKS” it is -0.224.
Consider “HMNFTVTDKNAVLYSNDNTKVYESPDINSKLVTTIAKDLPVNVTGITSNGWFRISLEGTYYVPGNGLEQR”, for which the “soluble fraction (log2)” value came to 0.141.
The figure for “HMINEDMTQSDRMELWGRLIDVVEDWLAEKGITEEDIPNEEREGVEDAAIIFGDDYDYLADRFSEVIGISR” is -1.18.
For “HMLKLEEIQPNATVRGILPDALITVVNVKWFGSEALELTYKDTSGRVANQLLFRDDQPRLEIVE”, the “soluble fraction (log2)” value was -0.538.
The figure for “HMSRSLLAALEKLRESHTGSLPASVLSSAQRRSLESFAQTTKSVQMRPSGRGVVFAIINPEVVDKHWRELS” is -0.497.
On to “HMKVKGVYQLDNGYWGYRFTMLVNGKTVSQRRVKDESGNPFKTEKKAEKARLVAMAEEQTKANK”, for which the “soluble fraction (log2)” value was -2.11.
The figure for “HMRRDEDLAHGRELLEKELRKQGLEVSENLKQDKLLEGAKRLGFLEAEDLVVAVGSGKVSAGMAVGRIIG” is 0.16; for “HMDRYVDEEKRFYWRSGEAYLNFSKYKDRSLAEVATVDPGFLRWMMEADFSPETKQIVERALEGEFPQKK” it is 0.123.
For “HMSTVEKDSELGGNFRIASYPTGKGQISEAIRSMIVRAKQVGVNIRLNTEATEEPLRALAPNAVILATG”, the “soluble fraction (log2)” value was 0.0325.
The figure for “HMTVSADQTAADAVIKLINAIGTVSENSGSAISAARSGYDALTDTQKKLVTNYNKLTQAEQVFSSLPS” is 0.203; for “HMITNMIIIMKPNASEEAIEKVKHLIESKGLQAHLSKGDEVTIVGVVGDKTRLHDSNIEISEGVDKIVNVT” it is 0.317.
Consider “HMREVDKRYYKINIAGTDRIFTNVYRVGDRYSAYEADKNGKPGKFLYSLSQAEIDRAVISGSFDFK”, for which the “soluble fraction (log2)” value was 0.105.
The figure for “HMDITTIIADVPGPKTQIKVDIKNTSLHIFGGMNFKKEIDIGDNKEIINIKYINGTLTVKLKT” is 0.089; for “HMETFNMTQKEITRLRVINQAIDKVITIREAAELLGLSERQVIRLKGGVEKFGPAFIIHKNRGRKP” it is -0.71; for “HMSSVVARRARIATLVVETSVASQEELGRLLADEGITVTQATLSRDLDALGAVKVLSADGGTRYRIPGQ” it is -0.778.
For “HMNNLPDFIKQLRKENNLTQEYVASEIGVSRPTYEQIEKGKRELTISEAEKLAKIFNIPLENFLQGKKGV”, the “soluble fraction (log2)” value turned out to be 0.184.
The figure for “HMKNVSVKMILSPESLGEIQVDLVFSKGKDLEIMLRPETAEVAKLIQSNSASLREQLSLEHKGPLSLNVS” is -0.626; for “HMQRLSRREIEVLHWIAEGKSDWQIGQILSISAKTVNYHTENLKRKFGVATRMQAVVSAIKQGAFVPGE” it is -4.43; for “HMAELVISVKADGTIHYQDRQLTKEALAAVLETRPEALLNLYVDEKAPFEAFVGVVDIARLKRGGHFVIST” it is -0.632.
For “HMRKLDQRLAGLLLGKGRLVKATHQQLADELGSVREMVSRLLKGFAEHDLVRMSREQIEIVDAAGLRKLAD”, the “soluble fraction (log2)” value is -1.33.
The figure for “HMNSLFPLSLKYLREQANITQAELAQKLDVTQQAVGRWERGQTSPDYETLKRLSVLFNVSVDYLLGV” is -0.304; for “HMSRMGDSIKSLRSRNNMSQDALAEKLNVTRQAISNWENSKTQPDADTLKNLGIIFNVTVDEIINNDF” it is 0.0528; for “HMDPDAIVSKGQLGALNNAIGRFIAQGGSQTVVDKGIAKRNPNAKKPADLTNSQAESLEAAILKILNG” it is 0.515.
The figure for “HMTKEEIVVNWLPRYTKRNLEDFGEYILLTNFNKYVEIFAEKFNVPILGRDANMISASAEGITIIN” is -0.191; for “HMNNIYFSPVVEENNKGLRLDKFLAASFPEFSRSQLQRLILEGNVSNDDVVIADNSQKVRVGDSFQVIVPE” it is -0.0377; for “HMREVSPEDLALMRRIDAWHLEHPFAGARLLRDLLRPEGFQAGRRHIGTLMARMGIEALYRK” it is -0.458.
The figure for “HMALKSGVIAHAVDDAVMRGLNVFTVSDDGSIVSMKDNDIVLGKDGKSPYSVSEWLEELKPNVPHWFG” is -0.0243.
Turning to “HMPTANFPAMAEALKKQYGPPTGEEETSWTHRLGGVFDIKIQSWNTPQGEMVLRSRGAAMDAGML”, the “soluble fraction (log2)” value turned out to be 0.439.
The figure for “HMENTELIELRKKRNLSQSQLAELLDLTRNQIANYESGRRIPDQETKQIIAGFFEMPAEEIFAG” is 0.0435; for “HMELSPVDLGERLKIARETANFTQDAAAKAVGIARTTLVSIEKGQRTARLDEIQALSRFYGVSANALLR” it is -0.499; for “HMSSVEQAILETLSKEHSHLTSLQVFEEIRGRLPAVNQSTVYRALERLVEQGVVSVSDMGTHAAVYE” it is -0.177.
The figure for “HMRAKPLILLDGREISAEELFSLDKNSIKSIEVLKDETALAQYGEKAKNGVVLVVTKSAAAS” is 0.246; for “HMGSFISADEALAKALSHAGLDQSAIRELEMDSELDDDVPHYSIDFKSGNLEYEYEISATDGSVLKFEQD” it is 0.105; for “HMTQMSVLFSELEAKDAATIADKLRERNIPYELSNNGSTILIPQEVLHDTRLSLASEGLPES” it is -0.0936.
As to “HMRDLTARQQQILALIRQHIADTGFPPTRAEIAAQLGFRSPNAAEEHLKALARKGVIELASGASRGIRLK”, the “soluble fraction (log2)” value was -0.16.
In the case of “HMSQEILSNQSIKDMIELGFEEQTIIDKIQTSTSDFDTTIEELKALKQLGASPTILSAMIKSIKK”, the “soluble fraction (log2)” value came to 0.285.
The figure for “HMSQVLVRINQDLNIRSGPGAQYDIIAVYRSGAIASVIGTYNNWYKVNFELDSKSYTGWINGTFTSR” is -1.93; for “HMNAQLTTIPDLDGMNMRAATAMLSSLGLEVKRIGSGTVFAQFPKAGAAMRPGSMVTIRGKAKSL” it is -0.355.
In the case of “HMNLLGERIREIRMEMGLTAKELAQRASVTPGYISQIEHDQIKPSMNVMMRIAEVLNVPMAALLM”, the “soluble fraction (log2)” value is -0.51.
The figure for “HMLKASEVLPYVFTDKFFIDDLNLKQDQILGFLEYIDSKLPSQKLLQVSQQFQLIDFLINESKNYKNQ” is -0.382.
The figure for “HMAEEGEQAASNTAAQAEDRAAELAAAGEKGKQITKTLVAEFGIPKNEAYRLALDAVAAVKAER” is -0.105; for “HMQSTEQVSVTVTIPPGGELRIDSDTFRVLLNGENVLDKQSGDWLMLSRDLLYLDIESAIGNGLSGNLIYT” it is 0.0974; for “HMDPLGGFTKGDVDMDGRVAVNDAVMVLKNAIKLMELDTQQLMLADADNDGKITVNDAVMILKKAIKLID” it is -0.111.
The figure for “HMDTVSYMSDAVKAGAVTPSHDEEARARYLLYAGFGAILLFLRYEASEPGDIESAIREFMERYGPVTAELY” is 0.243; for “HMTPLFNQGEVLKGFVLQTGTNNRVLLQIGTAKVLADAQTPLKAGEQLTLRVEATGPRTVLQILG” it is 0.553; for “HMETYTVSSKDGYANVRNEATVNSDLIAELKNGTLVTKFKEKGEWYYIEFEREDGTPFDYGYIHKSQLK” it is 0.181.
Consider “HMRSISVEMDGKEYLIPTVSENGKVLSDDDAVKQFKKTGKHLDVFDSPEDATAYARQLHEDQESFYA”, for which the “soluble fraction (log2)” value was determined as 0.142.
